This passage reports Kd results from article PMC11901735 (Molecules, 2025).

Test [1] deals with Ex-4-C40, exendin-4 with an additional Cys at the C-terminus (UniProt P26349 48-87). As to the kind of experiment: SPR; Biacore T200; recombinant human GLP-1R (0.5 μM) immobilized on a CM5 sensor chip; peptides injected at four-fold serial dilutions (0, 0.1-100 nM); n = 3; 1:1 interaction model. The conditions noted are these: both partners purified. In general terms: In SPR one partner is held on a chip, and binding of the other changes the refractive index at the surface.

Another test has as its target exendin-4 (UniProt P26349 48-87). The test is described as above. The settings on record: both partners purified.

B1: Recombinant human GLP-1R protein (receptor)
chain: RPQGATVSLWETVQKWREYRRQCQRSLTEDPPPATDLFCNRTFDEYACWPDGEPGSFVNVSCPWYLPWASSVPQGHVYRFCTAEGLWLQKDNSSLPWRDLSECEESKRGERSSPEEQLLFLY
modifications: Limits are not printed. The Sino Biological H02H catalogue suffix suggests a soluble extracellular domain with a C-terminal human Fc (left out). Residues 24-145 are the usual ectodomain construct …
As to B1, the Kd (usually the constant that tells how readily two partners part at equilibrium) came to 36 nM in test [1] and 33.6 nM with exendin-4.
